Test [1] deals with T1, mouse 5T4 expressed on CHO-S cells (CHO-m5T4 cells) (mouse, UniProt Q9Z0L0 32-361).
T1 sequence: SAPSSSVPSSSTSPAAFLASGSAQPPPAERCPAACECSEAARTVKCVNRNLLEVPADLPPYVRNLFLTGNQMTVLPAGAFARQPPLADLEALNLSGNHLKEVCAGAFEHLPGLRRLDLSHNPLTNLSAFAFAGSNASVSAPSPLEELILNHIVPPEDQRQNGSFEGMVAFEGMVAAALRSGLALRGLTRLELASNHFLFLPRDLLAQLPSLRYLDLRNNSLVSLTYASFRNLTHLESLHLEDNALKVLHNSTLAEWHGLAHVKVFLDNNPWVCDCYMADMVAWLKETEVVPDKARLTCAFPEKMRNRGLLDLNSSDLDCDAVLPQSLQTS
In words: flow cytometry, CHO-m5T4 cells. The procedure: CHO-h5T4 cells, CHO-m5T4 cells, CHO-fas5T4 cells or CHO-d5T4 cells were transferred to a 96-well plate at a density of 2×10⁵ cells/well respectively. The anti-5T4 antibodies were added to the 96-well plate, and incubated at 4° C. for 30 min. Then, the cells were incubated with the secondary antibody anti-hlgG-Fc-Alex Flour 647 (RL1-H) (Jackson ImmunoResearch Laboratories, Inc., Cat #: 109-606-170) at 4° C. in the dark for 15 minutes before flow cytometry analysis.
A general note: Flow cytometry measures light scatter and fluorescence of single cells or particles in a stream.

Test [2] deals with T2, h5T4-His protein (human, UniProt Q13641 32-355, limits assumed).
T2 construct: also called His-tagged human 5T4 protein; not shown: His tag
T2 sequence (looked up): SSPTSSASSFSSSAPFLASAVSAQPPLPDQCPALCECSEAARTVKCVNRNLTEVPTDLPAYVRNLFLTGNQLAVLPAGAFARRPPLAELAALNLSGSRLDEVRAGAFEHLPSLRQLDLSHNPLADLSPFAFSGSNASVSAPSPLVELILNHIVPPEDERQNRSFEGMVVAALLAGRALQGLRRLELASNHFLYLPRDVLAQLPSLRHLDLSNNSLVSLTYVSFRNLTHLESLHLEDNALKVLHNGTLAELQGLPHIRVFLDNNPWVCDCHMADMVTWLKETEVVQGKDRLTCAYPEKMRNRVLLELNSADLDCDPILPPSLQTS
In words: epitope binding assay, h5T4-His captured; binder = analyte 2; competitor (analyte 1): 35B12. Here is the method: (§1) Epitope binding assays were performed using ForteBio Octet system to determine whether two anti-5T4 antibodies target the same or overlapping epitopes. 1×HBS-EP+buffer (10 mM 4-(2-hydroxyethyl)-1-piperazineethanesulfonic acid (HEPES), 150 mM NaCl, 3 mM ethylenediaminetetraacetic acid (EDTA) and 0.05% P20, pH7.4) diluted from HBS-EP+buffer (10×) was used as the running buffer throughout the experiment. About 50 RU of h5T4-His protein was captured at a flow rate of 10 μL/min, and 200 nM of the tested antibody was injected at a flow rate of 30 μL/min to bind the ligand. Another comparison antibody was injected under the same conditions to determine whether the binding of different antibodies interfered with each other. The binding time was 180 s for each antibody.
(§2) The binding value of each antibody was obtained using Data Analysis HT 12.0. To quantify the interference of one antibody binding to another, a binding ratio was calculated to compare each pair of antibodies. The binding ratio is defined as the binding value of the second antibody (analyte 2), divided by the binding value of the first antibody (analyte 1). […] In general, antibody pairs that interfere with each other have the same or overlapping epitopes.

Test [3] has as its target T2, h5T4-His protein. Nature of the test: epitope binding assay, h5T4-His captured; binder = analyte 2; competitor (analyte 1): 31G4. Here is the method:
as §1, §2

B1: 32G1 (antibody, V domains shown)
VH: QVQLVQSGGGLVKPGGSLRLSCVASGFTFSDYYMNWVRQAPGKGLEWISYVGTESIYTYYADTVKGRFTISRDNAKNSLYLQMNSLRAEDTALYYCARARDYNLYGMDVWGQGTTVTVSS
VL: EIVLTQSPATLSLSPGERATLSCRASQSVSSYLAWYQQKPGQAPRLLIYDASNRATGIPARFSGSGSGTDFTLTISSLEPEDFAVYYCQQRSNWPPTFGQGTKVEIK
notes: also called anti-5T4 antibody 32G1
Turning to B1, the “Percentage of Positive Cells” value in test [1] worked out at 27.1%. In addition, the values for the binding ratio in the test with h5T4-His protein [2] and in the test with h5T4-His protein [3] were -0.02 and 0.89, respectively.

The values are drawn from patent US20260241018A1 (BIOCYTOGEN PHARMACEUTICALS BEIJING, published 2026).
